B1: MdMPK6-02G (as used in the BLI assay) (enzyme)
chain: MEGGGRSADTMMSEAAPPSQPDPNHPQQHPPPPHHAMGGVESIPATLSHGGRFIQYNIFGNVFEVTAKYKPPIMPIGKGAYGIVCSALNSETNEHVAVKKIANAFDNRIDAKRTLREIKLLRHMDHENVVAIRDIIPPPQRNFFNDVYIAYELMDTDLHQIIRSNQALSEEHCQYFLYQILRGLKYIHSANVLHRDLKPSNLLLNANCDLKICDFGLARVTSETDFMTEYVVTRWYRAPELLLNSSDYTAAIDVWSVGCIFMELMDRKPLFPGRDHVHQLRLLMELIGTPSEAELQFLNENAKRYIRQLPLYRRQSFTEKFPHVHPSAIDLVEKMLTFDPTRRITVEDALAHPYLTSLHDISDEPVCLTPFSFDFEQHALSEEQMKELIYREALAFNPEYQRQ
B2: MdHY5 (as used in the BLI assay) (natural protein)
chain: MQEQATSSLAASSLPSSSERSSSSAFHLEVKEGMESDEEIGRVPEIGGESAGASASARENGLLAGPDQVQTAGESQRKRGRNPADKESKRLKRLLRNRVSAQQARERKKAYLNDLEVRVKELEQKNSELDERLSTLQNENQMLRHILKNTTASRRGADGGANAD

How the values were obtained:
Assay in all cases: BLI
[1] = target: B2
[2] = target: B2
[3] = target: MdMPK6-15G (as used in the BLI assay) (Malus domestica (apple))

Binder: B1
- koff [1]: 0.00355 s⁻¹
- Kd [2]: 119 nM

Binder: B2
- Kd [3]: 93.9 nM
- koff [3]: 0.00105 s⁻¹

Reference: article PMC9884024 (2022)
